From PMC10322149
Each block holds one binder with its values, some of them ahead of it.

Experiments:
Homer3, Q9NSC5 = biological target: T1, Homer3, Q9NSC5; assay: SEC-MALS; FPLC coupled with static light scattering; Superose 12 10/300 GL; 50 mM Tris pH 8.0, 100 mM NaCl, 1 mM EDTA, 1 mM DTT; Homer3 and Pi-Homer3 at 50 μM; details: remark: other sources report otherwise
T1 chain: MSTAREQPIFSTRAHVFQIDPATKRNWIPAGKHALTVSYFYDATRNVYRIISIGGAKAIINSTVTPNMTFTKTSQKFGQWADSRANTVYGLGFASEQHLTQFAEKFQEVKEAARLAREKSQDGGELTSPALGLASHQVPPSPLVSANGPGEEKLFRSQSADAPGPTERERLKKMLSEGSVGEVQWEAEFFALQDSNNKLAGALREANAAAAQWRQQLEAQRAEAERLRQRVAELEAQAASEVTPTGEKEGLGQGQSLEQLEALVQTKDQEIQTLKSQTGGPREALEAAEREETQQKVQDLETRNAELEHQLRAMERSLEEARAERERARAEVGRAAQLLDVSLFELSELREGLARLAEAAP

[1] = biological target: T2, Pi-Homer3 (Homer3 phosphorylated by CaMKIIα), Q9NSC5; assay: as above; details: remark: other sources report otherwise
T2 chain: T1 chain

stoichiometry N (Homer3, Q9NSC5): 4
B1: Homer3, Q9NSC5 1-361 (natural protein)
chain: T1 chain

stoichiometry N [1]: 4
B2: Pi-Homer3 (Homer3 phosphorylated by CaMKIIα), Q9NSC5 1-361 (natural protein)
chain: T1 chain
modifications: here or on the partner: phosphorylated by CaMKIIα at Ser residues in the central linker region (positions not given); phosphorylated by CaMKIIα at Ser residues in the central linker region (positions not given)
